Measurements: PMC6566107, “Molecular Analysis of Protein-Protein Interactions in the Ethylene Pathway in the Different Ethylene Receptor Subfamilies” (Frontiers in Plant Science, 2019)
Several values for one entry are separate records, joined by “and”; a condition that tells them apart may be missing. Equal values may be shown once.

T1: Isolated transmembrane domain of AtETR1 (aa 1-157) with C4S and C6S (Arabidopsis thaliana, UniProt P49333 1-157, C4S | C6S)
T1 sequence: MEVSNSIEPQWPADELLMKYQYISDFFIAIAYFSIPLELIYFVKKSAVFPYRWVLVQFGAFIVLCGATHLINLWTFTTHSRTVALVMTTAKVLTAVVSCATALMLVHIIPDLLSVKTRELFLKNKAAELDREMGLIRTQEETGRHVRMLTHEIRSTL

T2: Arabidopsis thaliana EIN2 C-terminus (AtEIN2 479-1294), soluble cytosolic domain (Arabidopsis thaliana, UniProt Q9S814 479-1294, Alexa Fluor 488 succinimidyl-ester label where used as the labeled partner in MST)
T2 construct: source: recombinant, expressed and purified as previously described (Bisson et al., 2016)
T2 sequence (looked up): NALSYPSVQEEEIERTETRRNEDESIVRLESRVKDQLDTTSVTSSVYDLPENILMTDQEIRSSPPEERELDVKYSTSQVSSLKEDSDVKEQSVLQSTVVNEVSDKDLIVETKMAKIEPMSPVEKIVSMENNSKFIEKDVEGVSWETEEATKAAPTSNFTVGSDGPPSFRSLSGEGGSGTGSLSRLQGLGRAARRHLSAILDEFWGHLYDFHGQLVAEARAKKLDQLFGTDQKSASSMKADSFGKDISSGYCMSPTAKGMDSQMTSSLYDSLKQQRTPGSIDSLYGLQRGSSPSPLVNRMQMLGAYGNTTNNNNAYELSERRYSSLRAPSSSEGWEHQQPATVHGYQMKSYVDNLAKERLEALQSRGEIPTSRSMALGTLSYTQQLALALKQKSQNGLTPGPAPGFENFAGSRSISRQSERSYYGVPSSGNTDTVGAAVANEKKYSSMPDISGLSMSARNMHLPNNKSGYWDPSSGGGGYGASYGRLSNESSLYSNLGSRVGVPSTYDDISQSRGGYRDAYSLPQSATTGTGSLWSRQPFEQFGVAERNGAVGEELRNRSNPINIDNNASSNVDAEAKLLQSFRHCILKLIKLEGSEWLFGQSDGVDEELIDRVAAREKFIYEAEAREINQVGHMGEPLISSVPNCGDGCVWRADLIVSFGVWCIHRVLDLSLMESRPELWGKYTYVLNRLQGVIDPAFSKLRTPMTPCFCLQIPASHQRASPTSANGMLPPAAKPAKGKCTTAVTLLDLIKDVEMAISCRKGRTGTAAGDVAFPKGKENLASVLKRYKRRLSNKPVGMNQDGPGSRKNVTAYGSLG

T3: Arabidopsis thaliana Raf-like protein kinase CTR1 (AtCTR1), full-length, fused to mCerulean (Arabidopsis thaliana, UniProt Q05609 1-821, Alexa Fluor 488 succinimidyl-ester label)
T3 construct: CONSTITUTIVE TRIPLE RESPONSE 1 (CTR1), Arabidopsis thaliana, UniProt Q05609, full-length cDNA according to NCBI NM_120454.4; The CTR1 coding region was extended by mCerulean in pET30a; source: E. coli BL21 (DE3) with pRARE, purified (Ni-NTA)
T3 sequence (looked up): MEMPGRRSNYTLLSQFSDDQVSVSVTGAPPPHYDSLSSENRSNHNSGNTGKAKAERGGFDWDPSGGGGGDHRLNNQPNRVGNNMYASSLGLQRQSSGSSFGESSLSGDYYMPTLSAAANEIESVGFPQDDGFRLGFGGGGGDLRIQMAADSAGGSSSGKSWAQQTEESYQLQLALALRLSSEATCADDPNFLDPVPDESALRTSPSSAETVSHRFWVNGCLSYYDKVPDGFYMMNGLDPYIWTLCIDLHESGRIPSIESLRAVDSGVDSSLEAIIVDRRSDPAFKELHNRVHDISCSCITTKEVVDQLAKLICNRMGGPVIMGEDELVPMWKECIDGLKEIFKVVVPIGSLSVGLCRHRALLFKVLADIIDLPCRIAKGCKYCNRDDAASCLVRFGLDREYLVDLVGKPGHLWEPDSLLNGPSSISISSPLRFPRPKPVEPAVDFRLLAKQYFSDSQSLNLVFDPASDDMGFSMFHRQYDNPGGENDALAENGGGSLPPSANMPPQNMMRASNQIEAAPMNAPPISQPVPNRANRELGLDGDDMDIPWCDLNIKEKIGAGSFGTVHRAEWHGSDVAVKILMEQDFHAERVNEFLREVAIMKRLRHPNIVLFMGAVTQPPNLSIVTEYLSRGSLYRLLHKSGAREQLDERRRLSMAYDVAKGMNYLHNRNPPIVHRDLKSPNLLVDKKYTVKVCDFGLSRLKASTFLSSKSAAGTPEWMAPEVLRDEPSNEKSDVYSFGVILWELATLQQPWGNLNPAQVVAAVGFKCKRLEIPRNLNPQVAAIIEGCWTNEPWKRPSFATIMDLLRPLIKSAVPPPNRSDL

B1: Arabidopsis thaliana ethylene receptor ETR2 (AtETR2), full-length, type-II subfamily (receptor, UniProt Q0WPQ2 1-773, looked up)
chain: MVKEIASWLLILSMVVFVSPVLAINGGGYPRCNCEDEGNSFWSTENILETQRVSDFLIAVAYFSIPIELLYFVSCSNVPFKWVLFEFIAFIVLCGMTHLLHGWTYSAHPFRLMMAFTVFKMLTALVSCATAITLITLIPLLLKVKVREFMLKKKAHELGREVGLILIKKETGFHVRMLTQEIRKSLDRHTILYTTLVELSKTLGLQNCAVWMPNDGGTEMDLTHELRGRGGYGGCSVSMEDLDVVRIRESDEVNVLSVDSSIARASGGGGDVSEIGAVAAIRMPMLRVSDFNGELSYAILVCVLPGGTPRDWTYQEIEIVKVVADQVTVALDHAAVLEESQLMREKLAEQNRALQMAKRDALRASQARNAFQKTMSEGMRRPMHSILGLLSMIQDEKLSDEQKMIVDTMVKTGNVMSNLVGDSMDVPDGRFGTEMKPFSLHRTIHEAACMARCLCLCNGIRFLVDAEKSLPDNVVGDERRVFQVILHIVGSLVKPRKRQEGSSLMFKVLKERGSLDRSDHRWAAWRSPASSADGDVYIRFEMNVENDDSSSQSFASVSSRDQEVGDVRFSGGYGLGQDLSFGVCKKVVQLIHGNISVVPGSDGSPETMSLLLRFRRRPSISVHGSSESPAPDHHAHPHSNSLLRGLQVLLVDTNDSNRAVTRKLLEKLGCDVTAVSSGFDCLTAIAPGSSSPSTSFQVVVLDLQMAEMDGYEVAMRIRSRSWPLIVATTVSLDEEMWDKCAQIGINGVVRKPVVLRAMESELRRVLLQADQLL
modifications: Alexa Fluor 488 succinimidyl-ester label where used as the labeled partner in MST
notes: ETR2, Arabidopsis thaliana, UniProt Q0WPQ2, full-length, codon optimized cDNA according to NCBI NM_113216.3; The thrombin site of pGEX-4T-1 was changed to a TEV site (ENLYFQG); No cleavage is described; The purified protein runs at an apparent 120 kDa, so GST is probably still attached; The same construct was used with and without the Alexa Fluor 488 label; source: E. coli C43 (DE3), solubilised …
B2: Arabidopsis thaliana ethylene receptor ETR1 (AtETR1), full-length, type-I subfamily (receptor, UniProt P49333 1-738, looked up)
chain: MEVCNCIEPQWPADELLMKYQYISDFFIAIAYFSIPLELIYFVKKSAVFPYRWVLVQFGAFIVLCGATHLINLWTFTTHSRTVALVMTTAKVLTAVVSCATALMLVHIIPDLLSVKTRELFLKNKAAELDREMGLIRTQEETGRHVRMLTHEIRSTLDRHTILKTTLVELGRTLALEECALWMPTRTGLELQLSYTLRHQHPVEYTVPIQLPVINQVFGTSRAVKISPNSPVARLRPVSGKYMLGEVVAVRVPLLHLSNFQINDWPELSTKRYALMVLMLPSDSARQWHVHELELVEVVADQVAVALSHAAILEESMRARDLLMEQNVALDLARREAETAIRARNDFLAVMNHEMRTPMHAIIALSSLLQETELTPEQRLMVETILKSSNLLATLMNDVLDLSRLEDGSLQLELGTFNLHTLFREVLNLIKPIAVVKKLPITLNLAPDLPEFVVGDEKRLMQIILNIVGNAVKFSKQGSISVTALVTKSDTRAADFFVVPTGSHFYLRVKVKDSGAGINPQDIPKIFTKFAQTQSLATRSSGGSGLGLAISKRFVNLMEGNIWIESDGLGKGCTAIFDVKLGISERSNESKQSGIPKVPAIPRHSNFTGLKVLVMDENGVSRMVTKGLLVHLGCEVTTVSSNEECLRVVSHEHKVVFMDVCMPGVENYQIALRIHEKFTKQRHQRPLLVALSGNTDKSTKEKCMSFGLDGVLLKPVSLDNIRDVLSDLLEPRVLYEGM
modifications: Alexa Fluor 488 succinimidyl-ester label where used as the labeled partner in MST
notes: ETR1, Arabidopsis thaliana, full-length receptor; source: recombinant, expressed and purified as described in Milić et al., 2018, in FosCholine-16

What was measured:
[1] = target: T1, Isolated transmembrane domain of AtETR1 …; experiment: MST; ETR2 Alexa488-labeled
[2] = target: T2, Arabidopsis thaliana EIN2 C-terminus …; experiment: MST; 75 nM Alexa Fluor 488-labeled AtEIN2 479-1294; unlabeled AtETR2 titrated 4 µM to 1.95 nM; ambient temperature; 60% MST power; 1:1 model; apparent Kd; details: both partners purified
[3] = target: the molecule itself; experiment: MST; 40 nM Alexa Fluor 488-labeled receptor (AtETR1 or AtETR2); unlabeled AtETR1 or AtETR2 (4 µM to 0.49 nM) or ETR1-TM C4SC6S (16 µM to 0.98 nM) titrated; 0.0075% (w/v) FosCholine-16; 60% MST power; 1:1 model
[4] = target: T3, Arabidopsis thaliana Raf-like protein …; experiment: MST; Alexa Fluor 488-labeled AtCTR1 (MST buffer 3; 50 nM with AtETR1, 20 nM with AtETR2); unlabeled receptors (MST buffer 2) titrated 4 µM to 0.98 nM; 60% MST power; premium capillaries and 10 min incubation for AtETR2; 1:1 model; details: both partners purified
[5] = target: T2, Arabidopsis thaliana EIN2 C-terminus …; experiment: MST; 20 nM Alexa Fluor 488-labeled AtETR2 (MST buffer 1: 50 mM HEPES/NaOH pH 7.8, 300 mM NaCl, 5% glycerol, 0.015% FosCholine-16); unlabeled AtEIN2 479-1294 (MST buffer 3) titrated 2 µM to 0.98 nM; 20% MST power; 1:1 model; apparent Kd; details: both partners purified
[6] = target: T1, Isolated transmembrane domain of AtETR1 …; experiment: MST; ETR1 Alexa488-labeled
[7] = target: B1; experiment: MST; 40 nM Alexa Fluor 488-labeled receptor (AtETR1 or AtETR2); unlabeled AtETR1 or AtETR2 (4 µM to 0.49 nM) or ETR1-TM C4SC6S (16 µM to 0.98 nM) titrated; 0.0075% (w/v) FosCholine-16; 60% MST power; 1:1 model; details: both partners purified

Binder | Kd [1] | Kd [2] | Kd [3] | Kd [4] | Kd [5] | Kd [6] | Kd [7]
B1 | 145 nM | 147 nM | 96 nM | 165 nM | 161 nM | – | –
B2 | – | – | 326 nM | 169 nM | – | 491 nM | 177 nM and 217 nM
